# In US11324803B2, “Methods and compositions for treatment of Gaucher Disease via modulation of C5a receptor” (Children's Hospital Medical Center, priority 2015, dated 2022):
# T1: mouse C5aR2 (C5L2) (Mus musculus, UniProt Q8BW93)
# T1 sequence (Q8BW93 1-344): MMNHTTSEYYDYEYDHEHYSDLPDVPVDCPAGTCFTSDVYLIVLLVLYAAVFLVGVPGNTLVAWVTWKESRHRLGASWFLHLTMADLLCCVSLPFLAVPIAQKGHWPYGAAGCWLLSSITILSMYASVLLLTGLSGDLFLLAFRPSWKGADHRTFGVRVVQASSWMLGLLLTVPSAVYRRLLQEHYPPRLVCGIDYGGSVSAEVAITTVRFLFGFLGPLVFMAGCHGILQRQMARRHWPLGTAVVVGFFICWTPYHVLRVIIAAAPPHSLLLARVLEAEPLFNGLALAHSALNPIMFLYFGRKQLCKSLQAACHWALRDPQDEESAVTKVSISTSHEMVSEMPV
# T2: C5aR1 (Homo sapiens, UniProt P21730)
# T2 sequence (P21730 1-350): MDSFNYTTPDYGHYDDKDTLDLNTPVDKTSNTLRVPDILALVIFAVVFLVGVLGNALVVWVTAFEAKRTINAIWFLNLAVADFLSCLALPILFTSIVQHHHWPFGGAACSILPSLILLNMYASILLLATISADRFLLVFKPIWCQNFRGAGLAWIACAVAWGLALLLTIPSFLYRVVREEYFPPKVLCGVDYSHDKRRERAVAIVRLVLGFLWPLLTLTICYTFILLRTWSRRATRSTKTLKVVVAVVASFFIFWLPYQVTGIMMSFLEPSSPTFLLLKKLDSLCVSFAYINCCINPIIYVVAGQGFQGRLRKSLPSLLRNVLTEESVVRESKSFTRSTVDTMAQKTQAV
# T3: mouse C5aR1 (Mus musculus, UniProt P30993)
# T3 sequence (P30993 1-351): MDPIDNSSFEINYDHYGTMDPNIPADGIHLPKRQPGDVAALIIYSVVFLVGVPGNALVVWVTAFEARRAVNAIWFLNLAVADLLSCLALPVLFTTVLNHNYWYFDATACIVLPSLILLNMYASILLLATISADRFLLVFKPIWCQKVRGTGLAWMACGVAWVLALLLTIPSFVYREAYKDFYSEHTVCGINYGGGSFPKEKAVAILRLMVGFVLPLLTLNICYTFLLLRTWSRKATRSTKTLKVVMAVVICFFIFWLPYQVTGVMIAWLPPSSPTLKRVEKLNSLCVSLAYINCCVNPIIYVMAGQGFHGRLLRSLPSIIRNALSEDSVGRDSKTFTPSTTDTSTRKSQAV
# Assays:
# [1] = molecular target: T1, mouse C5aR2 (C5L2); details: cited from earlier work
# [2] = system: C5a-induced effector functions; details: cited from earlier work
# [3] = molecular target: T2, C5aR1; details: cited from earlier work
# [4] = molecular target: T2, C5aR1; experiment: GC-IC-induced CCL18 and pro-inflammatory cytokine production in CBE-treated human MΦ-like cell line U937 with C5aRA; format: cell-based; parameters: endogenous in cells; host or cells: U937 (human macrophage-like cell line), CBE-treated
# [5] = molecular target: T3, mouse C5aR1; details: cited from earlier work
# [6] = CBE-treated U937 cells, GC-IC stimulation, ELISA
molecule,measurement,setting,value
"Thr Leu Gln Lys Lys Ile Glu Glu Ile Ala Ala Lys Tyr Lys His Ser Val Val Lys Lys Cys Cys Tyr Asp Gly Ala Ala Val Asn Asn Asp Glu Thr Cys Glu Gln Arg Ala Ala Arg Ile Ser Leu Gly Pro Arg Cys Ile Lys Ala … (protein, mutant C5a-(1-66, Cys27A1a) -A8B-Del. 71-73 of human C5a, positions 27 and 68-71 of human C5a mutated and positions 72-74 deleted) TLQKKIEEIAAKYKHSVVKKCCYDGAAVNNDETCEQRAARISLGPRCIKAFTECCVVASQLRANISFKRS",affinity to bind mouse C5aR2 (C5L2),[1],high affinity
same,C5a-induced effector functions,[2],inhibit
same,affinity to bind human C5aR1,[3],high affinity
same,GC-IC-induced production of CCL18,[4]; [6],abolished
same,GC-IC-induced production of IL1β,[4]; [6],abolished
same,GC-IC-induced production of IL6,[4]; [6],abolished
same,GC-IC-induced production of IL23,[4]; [6],abolished
same,GC-IC-induced production of TNFα,[4]; [6],abolished
same,GC-IC-induced production of CCL18,"[4]; CBE-treated U937 cells, GC-IC stimulation, ELISA, listed as C5aR antagonist A8^Δ71-73",marked reduction
same,"MΦs, DC and T cells mediated immune inflammation",[4]; human model of Gaucher disease,significantly reduces
same,affinity to bind mouse C5aR1,[5],high affinity
